Data: article PMC7572793

What was measured:
[1] = biological target: recombinant full-length PfCSP (rPfCSP_FL) (Plasmodium falciparum) (UniProt Q7K740); assay: ITC
[2] = biological target: rPfCSP_∆ABCD (Plasmodium falciparum) (UniProt Q7K740); assay: ITC

Substance: L9 (antibody)
- KD1 (binding event 1) [1]: 22 nM
- KD2 (binding event 2) [1]: 47 nM
- N of binding event 1 (binding sites) [1]: 2
- N of binding event 2 (binding sites) [1]: 9
- stoichiometry N (antigen binding sites per rPfCSP) [1]: 11.2
- Kd [2]: 73 nM
- stoichiometry N (antigen binding sites per rPfCSP) [2]: 12.7
